Target: purified human gelsolin (human, UniProt P06396 28-782)
Assay: ELISA

Chain of purified human gelsolin (P06396 28-782): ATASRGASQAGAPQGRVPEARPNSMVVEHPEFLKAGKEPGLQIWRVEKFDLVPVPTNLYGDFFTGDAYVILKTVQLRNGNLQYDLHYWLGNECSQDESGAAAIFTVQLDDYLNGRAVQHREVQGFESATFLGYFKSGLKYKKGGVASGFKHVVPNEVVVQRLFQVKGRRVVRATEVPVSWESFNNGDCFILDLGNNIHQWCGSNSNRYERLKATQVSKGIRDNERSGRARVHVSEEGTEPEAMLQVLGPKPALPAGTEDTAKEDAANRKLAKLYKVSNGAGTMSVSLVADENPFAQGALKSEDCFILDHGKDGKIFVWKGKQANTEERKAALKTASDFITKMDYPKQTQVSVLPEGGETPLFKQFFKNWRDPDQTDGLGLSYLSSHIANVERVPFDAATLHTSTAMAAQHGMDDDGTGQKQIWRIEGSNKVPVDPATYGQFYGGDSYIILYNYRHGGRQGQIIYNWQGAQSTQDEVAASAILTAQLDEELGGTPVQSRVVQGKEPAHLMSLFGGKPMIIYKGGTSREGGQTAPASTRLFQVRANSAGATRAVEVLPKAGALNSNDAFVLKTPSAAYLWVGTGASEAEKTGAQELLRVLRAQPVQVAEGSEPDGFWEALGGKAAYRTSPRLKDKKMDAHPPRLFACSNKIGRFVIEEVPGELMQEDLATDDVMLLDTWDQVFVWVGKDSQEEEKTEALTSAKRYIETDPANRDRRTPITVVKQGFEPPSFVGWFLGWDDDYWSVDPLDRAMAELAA

EC50: 30 ± 4 nM
B1: GST-PYK2Δ1–781 (domain or fragment)
chain: EEDFIQPSSREEAQQLWEAEKVKMRQILDKQQKQMVEDYQWLRQEEKSLDPMVYMNDKSPLTPEKEVGYLEFTGPPQKPPRLGAQSIQPTANLDRTDDLVYLNVMELVRAVLELKNELCQLPPEGYVVVVKNVGLTLRKLIGSVDDLLPSLPSSSRTEIEGTQKLLNKDLAELINKMRLAQQNAVTSLSEECKRQMLTASHTLAVDAKNLLDAVDQAKVLANLAHPPAE

Source: article PMC2173747 (The Journal of Cell Biology, 2003)
